Measured values taken from publication PMC4922585.

Columns and labels:
[1] = biological target: TF G164A-FVIIa complex on THP-1 cells (UniProt P13726)
[2] = biological target: TF S160A-FVIIa complex on THP-1 cells (UniProt P13726)
[3] = biological target: Wild-type TF-FVIIa complex on THP-1 cells (UniProt P13726)
[4] = biological target: TFLBR-FVIIa complex on THP-1 cells (UniProt P13726)
[5] = biological target: Wild-type TF-FVIIa complex on THP-1 cells (UniProt P13726); remark: listed apart in the source

**Q.** With “Purified human factor X (natural protein)” as the substance, how does the Km of FX activation by TF-FVIIa on THP-1 cells (Michaelis-Menten kinetics) [1] read?
**A.** 0.191 µM

**Q.** What about the Km of FX activation by TF-FVIIa on THP-1 cells (Michaelis-Menten kinetics) [2] of the same substance?
**A.** 0.117 µM

**Q.** And the Km of FX activation by TF-FVIIa on THP-1 cells (Michaelis-Menten kinetics) [3]?
**A.** 0.134 µM

**Q.** And the Km of FX activation by TF-FVIIa on THP-1 cells treated with HgCl2 (100 μM, 5 min) (FVIIa 10 nM, FX 25 to 1000 nM) [4]?
**A.** 0.223 µM

**Q.** What about the Km of FX activation by TF-FVIIa on THP-1 cells treated with control vehicle (FVIIa 10 nM, FX 25 to 1000 nM) [4] of the same substance?
**A.** 0.196 µM

**Q.** And the Km of FX activation by TF-FVIIa on THP-1 cells treated with HgCl2 (100 μM, 5 min) (FVIIa 10 nM, FX 25 to 1000 nM) [5]?
**A.** 0.137 µM

**Q.** What about the Km of FX activation by TF-FVIIa on THP-1 cells treated with control vehicle (FVIIa 10 nM, FX 25 to 1000 nM) [5] of the same substance?
**A.** 0.187 µM
